Results: patent US8624002B2, “Prostaglandin E2 binding proteins and uses thereof” (AbbVie, Inc., priority 2008, dated 2014)
Where a chain is given by its changes, count along the chain named. Numbers in names are those of the source.

B1: K3A: human anti-PGE2 antibody from PROfusion mRNA display; VH SEQ ID NO 13, VL SEQ ID NO 17 (antibody, V domains shown)
VH: EVQLVQSGAETKKPGASVEVSCKASGYSFTEYGISWVRQAPGQGPEWMGCISPYNGKLHYAQEFQGRVTMTTGTSTNTAYMELGSLRSDDTAVYYCARGGFSFYDSSGYYYVTDHWGQGTLVTVSS
VL: DIRLTQSPSSLSASVGDRVTITCRASQSIGSYLNWYQQKSGKAPKLLIYAASKLQSGVPSRFSGSGFGTDFTLTISSLQPEDSATYYCQQSDTTPFTFGQGTKLEIKR
B2: L11: human anti-PGE2 antibody from PROfusion mRNA display; VH SEQ ID NO 25, VL SEQ ID NO 29 (antibody, V domains shown)
VH: EVQLVQSGPELKKPGTSVKVSCKASGYTLTTYAMNWVRQAPGQGLEWMGWIDTSTGNPTYAPGFLGRFVFSLDTSLSTTYLQISSLKPDDTAVYYCARSSHTRPGDFWGQGTLVTVSS
VL: QSGLTQPPSVSGTPGQRVTISCSGSESNVGTNSVNWYQQLPGAAPRLLIRGNSDRPSGVPDRFSASKSGTSASLAISRLQSEDEADYFCGACDGRLSGLYVFGTGTKVTVL
B3: K1B: human anti-PGE2 antibody from PROfusion mRNA display; VH SEQ ID NO 5, VL SEQ ID NO 9 (antibody, V domains shown)
VH: EVQLVQSGAEVKRPGASVKVSCKTSGYTFTNYDINWVRLAPGQGLEWMGCMNPTTGKTGYAQKFQGRVTMTRDTTIATAYMELSRLTSEDTAVYYCARGRGYSPGYGVAYADYWGQGTLVTVSS
VL: DIQLTQSPSSLPASVGDRVTITCRASQSISTYLNWYQQTPGKAPSLLIYAASSLQSGVPSRFSGSGSGTDFTLTISSLQPEDFATYYCQQSYSPPPTFGGGTKVEIKR
B4: K7H: human anti-PGE2 antibody from PROfusion mRNA display; VH SEQ ID NO 21, VL SEQ ID NO 24 (antibody, V domains shown)
VH: B1 VH with A9S, T11L, E19K, E63K, Q65L, G73D, G84R, R87K, F103S
VL: B3 VL with Q3R

Experiment: Biotin-PGE2 ELISA (PGE2-biotinamide binding to captured IgG)
Conditions: Biotin-PGE2 0 μM
Protocol: Enzyme linked immunosorbent assays to screen for antibodies that bind prostaglandin E2 were performed according to at least one of the two following methods.
ELISA plates (Costar 3369, Corning, N.Y.) were coated with 50 μl of anti-host Fc IgG (Sigma, St. Louis, Mo.) at 2 μg/ml in PBS (Invitrogen Carlsbad, Calif.). Following an overnight incubation at 4° C., washed with PBS and the plate was blocked with 200 μl Superblock (Pierce #37535, Rockford, Ill.). The IgG containing samples were diluted to 1 μg/ml in Assay Buffer (10% Superblock in PBS containing 0.05% Surfactamps (Pierce #37535, Rockford, Ill.) and 50 μl/well added to each well and incubated for 1 hour at room temperature. Plates were washed four times with Tween-Tris Buffered Solution (TTBS). […] The titration curve samples were added to each IgG sample at 50 μl/well and incubated for 1 hour at room temperature. The plates were washed as previously described and 50 μl of 1:5000 dilution of streptavidin polyhrp40 (Fitzgerald Industries, Concord, Mass.) in Assay Buffer was added to each well and incubated for 45 minutes at room temperature. A final wash step was performed and the plates were developed using a single step TMB system (Sigma #T8665, St. Louis, Mo.) and 100 μl/well 2N H2SO4. Plates were read at 450 nm on a Molecular Devices Spectramax plate reader (Sunnyvale, Calif.). EC50 was determined using GraphPad Prism 5 (GraphPad Software, La Jolla, Calif.).

Row | Binding to PGE2-Biotinamide (OD450) | Molecule
1 | 0.11 | B1
2 | 0.04 | B2
3 | 0.07 | B3
4 | 0.04 | B4

Same assay, conditions: Biotin-PGE2 0.1 μM

Row | Binding to PGE2-Biotinamide (OD450) | Molecule
5 | 0.22 | B1
6 | 0.04 | B2
7 | 0.13 | B3
8 | 0.03 | B4

Same assay, conditions: Biotin-PGE2 0.3 μM

Row | Binding to PGE2-Biotinamide (OD450) | Molecule
9 | 0.34 | B1
10 | 0.04 | B2
11 | 0.21 | B3
12 | 0.04 | B4

Same assay, conditions: Biotin-PGE2 1 μM

Row | Binding to PGE2-Biotinamide (OD450) | Molecule
13 | 0.51 | B1
14 | 0.05 | B2
15 | 0.29 | B3
16 | 0.06 | B4

Same assay, conditions: Biotin-PGE2 2 μM

Row | Binding to PGE2-Biotinamide (OD450) | Molecule
17 | 0.61 | B1
18 | 0.07 | B2
19 | 0.27 | B3
20 | 0.10 | B4

Same assay, conditions: Biotin-PGE2 5 μM

Row | Binding to PGE2-Biotinamide (OD450) | Molecule
21 | 0.67 | B1
22 | 0.07 | B2
23 | 0.67 | B3
24 | 0.13 | B4

Same assay, conditions: Biotin-PGE2 15 μM

Row | Binding to PGE2-Biotinamide (OD450) | Molecule
25 | 0.78 | B1
26 | 0.07 | B2
27 | 0.82 | B3
28 | 0.29 | B4

Same assay, conditions: Biotin-PGE2 45 μM; IgG-containing COS7 media

Row | Binding to PGE2-Biotinamide (OD450) | Molecule
29 | 0.58 | B1
30 | 0.07 | B2
31 | 0.88 | B3
32 | 0.24 | B4
